# Measurements: patent US20110039779A1 (published 2011)
# Where “and” joins values, the source holds several entries; their conditions need not be identical. Equal entries are not always repeated. Where no end group is shown, it is not given here. [ ]: non-standard residue; d: D form. The star is where a group is joined. Biotin = O=C1N[C@H]2[C@H](CS[C@H]2CCCCC(=O)*)N1; pGlu = O=C1CC[C@@H](C(=O)O)N1; AEEA = NCCOCCOCC(=O)O
# How the values were obtained:
# [1] = target: IGF-1R on SW480, MCF-7 and MiaPaCa cells (human, UniProt P08069 31-1367); test: cell-based or functional assay
# Sequence of IGF-1R on SW480, MCF-7 and MiaPaCa cells (P08069 31-1367): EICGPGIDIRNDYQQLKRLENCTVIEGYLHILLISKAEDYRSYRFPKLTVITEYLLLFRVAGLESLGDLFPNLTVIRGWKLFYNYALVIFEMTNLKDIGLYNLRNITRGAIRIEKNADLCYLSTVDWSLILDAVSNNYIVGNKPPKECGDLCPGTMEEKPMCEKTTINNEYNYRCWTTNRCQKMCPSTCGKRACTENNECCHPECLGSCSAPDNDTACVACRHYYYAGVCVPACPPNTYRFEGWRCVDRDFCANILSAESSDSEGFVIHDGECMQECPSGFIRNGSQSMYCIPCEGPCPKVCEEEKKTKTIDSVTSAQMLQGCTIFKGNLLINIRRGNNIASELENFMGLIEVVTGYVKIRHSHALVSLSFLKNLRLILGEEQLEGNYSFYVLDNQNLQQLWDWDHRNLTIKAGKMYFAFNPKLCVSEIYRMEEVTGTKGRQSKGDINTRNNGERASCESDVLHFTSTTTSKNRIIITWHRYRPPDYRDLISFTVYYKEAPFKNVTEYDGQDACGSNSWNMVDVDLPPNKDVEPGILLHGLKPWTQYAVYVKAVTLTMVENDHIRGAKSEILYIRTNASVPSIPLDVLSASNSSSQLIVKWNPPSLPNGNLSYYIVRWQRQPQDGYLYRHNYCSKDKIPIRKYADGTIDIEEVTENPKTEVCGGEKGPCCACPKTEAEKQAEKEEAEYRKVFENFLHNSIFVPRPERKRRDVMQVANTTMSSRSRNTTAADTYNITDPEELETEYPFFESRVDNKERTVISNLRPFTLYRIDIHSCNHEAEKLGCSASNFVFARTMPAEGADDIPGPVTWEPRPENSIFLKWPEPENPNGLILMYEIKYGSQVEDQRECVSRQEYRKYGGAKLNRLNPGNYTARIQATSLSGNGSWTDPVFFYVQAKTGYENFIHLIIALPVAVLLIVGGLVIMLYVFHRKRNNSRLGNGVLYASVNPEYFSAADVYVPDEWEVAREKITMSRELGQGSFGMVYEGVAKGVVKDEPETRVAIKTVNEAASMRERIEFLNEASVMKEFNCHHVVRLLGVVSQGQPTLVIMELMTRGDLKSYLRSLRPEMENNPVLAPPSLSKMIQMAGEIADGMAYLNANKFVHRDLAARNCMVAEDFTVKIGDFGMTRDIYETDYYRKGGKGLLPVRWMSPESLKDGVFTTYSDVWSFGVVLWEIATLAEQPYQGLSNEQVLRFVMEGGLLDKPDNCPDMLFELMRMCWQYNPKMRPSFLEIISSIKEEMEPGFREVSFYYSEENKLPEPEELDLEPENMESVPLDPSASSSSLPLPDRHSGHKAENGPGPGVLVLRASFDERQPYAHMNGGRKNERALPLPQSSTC
# [2] = target: T1, Human IGF-1R (HIGF-1R), purified from BHK cells stably transfected with IGF-1R cDNA (human, UniProt P08069 31-1367); test: competition with 125I-IGF-1 on purified HIGF-1R (PEG or SPA assay; the sentence does not say which)
# T1 construct: mature; Detergent-solubilised whole receptor, not on cells; form 'mature' is my reading of 'purified from ... cells stably transfected with IGF-1R cDNA'; also called human insulin-like growth factor-1 receptor; purified HIGF-1R
# T1 sequence (P08069 31-1367 limits assumed): as the sequence (P08069 31-1367) above
# IGF-1R on SW480 cells [3] = target: T2, IGF-1R on SW480 cells (UniProt P08069 31-1367, limits assumed); test: cell-based or functional assay
# T2 sequence (P08069 31-1367 limits assumed): as the sequence (P08069 31-1367) above
# [4] = target: IGF-1R on MCF-7 cells (MCF-7S8, MCF7) (human, UniProt P08069 31-1367); test: cell-based or functional assay
# Sequence of IGF-1R on MCF-7 cells (MCF-7S8, MCF7) (P08069 31-1367): as above
# [5] = target: Human IGF-1R (HIGF-1R), purified from BHK cells stably transfected with IGF-1R cDNA (human, UniProt P08069 31-1367); test: cell-based or functional assay
# Target sequence in this assay (P08069 31-1367 limits assumed): as the sequence (P08069 31-1367) above
# IGF-1R on SW480 cells [6] = target: T2, IGF-1R on SW480 cells; test: cell-based or functional assay; remark: listed apart in the source
# IGF-1R on L6 cells [7] = test: cell-based or functional assay
# IGF-1R on L6 cells [8] = test: cell-based or functional assay; remark: listed apart in the source
# Target sequence in this assay (P24062 31-737, chain 1 of 2): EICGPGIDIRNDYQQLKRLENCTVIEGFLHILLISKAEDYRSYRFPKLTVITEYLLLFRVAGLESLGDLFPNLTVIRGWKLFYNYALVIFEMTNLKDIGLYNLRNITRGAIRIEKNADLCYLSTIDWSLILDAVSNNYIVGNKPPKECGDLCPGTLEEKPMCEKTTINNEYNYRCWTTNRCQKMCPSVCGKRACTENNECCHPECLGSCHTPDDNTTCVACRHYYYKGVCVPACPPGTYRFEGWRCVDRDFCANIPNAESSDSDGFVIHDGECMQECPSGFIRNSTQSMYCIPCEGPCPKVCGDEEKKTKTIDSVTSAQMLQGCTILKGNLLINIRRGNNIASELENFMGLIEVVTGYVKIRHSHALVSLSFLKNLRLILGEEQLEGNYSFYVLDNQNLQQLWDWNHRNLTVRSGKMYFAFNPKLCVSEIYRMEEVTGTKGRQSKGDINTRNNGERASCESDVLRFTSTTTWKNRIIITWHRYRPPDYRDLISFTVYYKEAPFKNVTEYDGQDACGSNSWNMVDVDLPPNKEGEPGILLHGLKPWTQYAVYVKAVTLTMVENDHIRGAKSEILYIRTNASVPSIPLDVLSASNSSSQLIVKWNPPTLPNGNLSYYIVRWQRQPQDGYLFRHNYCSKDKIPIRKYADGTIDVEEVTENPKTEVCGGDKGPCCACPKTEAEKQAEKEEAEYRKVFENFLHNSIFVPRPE
# Target sequence in this assay (P24062 742-1370, chain 2 of 2): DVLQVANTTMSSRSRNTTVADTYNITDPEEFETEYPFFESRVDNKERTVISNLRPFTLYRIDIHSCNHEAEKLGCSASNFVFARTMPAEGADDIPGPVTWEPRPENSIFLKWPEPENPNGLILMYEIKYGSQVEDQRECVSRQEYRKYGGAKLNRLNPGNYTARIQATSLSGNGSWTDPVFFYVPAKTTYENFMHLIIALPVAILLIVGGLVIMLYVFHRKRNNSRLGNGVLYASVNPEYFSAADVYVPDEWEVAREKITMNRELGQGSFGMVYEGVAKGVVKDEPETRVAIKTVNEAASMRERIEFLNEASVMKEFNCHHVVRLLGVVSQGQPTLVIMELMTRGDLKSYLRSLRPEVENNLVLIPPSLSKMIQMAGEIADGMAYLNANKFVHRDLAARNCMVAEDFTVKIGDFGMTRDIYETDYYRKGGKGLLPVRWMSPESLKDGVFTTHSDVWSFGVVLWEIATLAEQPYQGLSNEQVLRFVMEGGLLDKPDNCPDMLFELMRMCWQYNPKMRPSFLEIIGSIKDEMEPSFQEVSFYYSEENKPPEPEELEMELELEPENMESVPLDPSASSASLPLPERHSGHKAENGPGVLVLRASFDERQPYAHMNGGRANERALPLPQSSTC
# [9] = target: T3, human insulin-like growth factor-1 receptor (HIGF-1R) (human, UniProt P08069 31-1367); test: 125I-IGF-1 displacement, SPA-assay
# T3 construct: Detergent-solubilised receptor purified on WGA-agarose; also called HIGFIR
# T3 sequence (P08069 31-1367 limits assumed): as the sequence (P08069 31-1367) above
# Text: In certain cases, a scintillation proximity assay (SPA assay) was used to determine IGF-1R affinity.
binder,measurement,setting,value
"QFYGCLLDLSLGVPSFGWRRRCITA [F138, listing 1 of 2 here]","IC50, IGF-1 dependent growth in MCF-7",[1],500 nM
same,"IC50, IGF-1 dependent growth in SW480",[1],150 nM
same,Kd,[2],6 to 10 nM
EFGRGYGGDGGGYWSGYEWLAE [F207],IC50 in SW480 (M) in presence of IGF-1,IGF-1R on SW480 cells [3],2e-06 M
same,"IC50 in MCF-7S8, in presence of IGF-1",[4],2000 nM
same,"IC50 in kinase assay (M), IGF-1R kinase activation by 10 nM IGF-1",[5],2e-07 M
EGRVDDAFYEWFERQLGE [F213],IC50 in SW480 (M) in presence of IGF-1,IGF-1R on SW480 cells [3],2e-06 M
same,"IC50 in MCF-7S8, in presence of IGF-1",[4],2000 nM
SFYSCLESLVNGPAEKSRGQWDGCRK [F250],IC50 in SW480 (M) in presence of IGF-1,IGF-1R on SW480 cells [3],2e-06 M and 1e-06 M
same,"IC50 in MCF-7S8, in presence of IGF-1",[4],2000 nM
SFYSCLESLVAGPAEKSRGQWEGCRK [F259],IC50 in SW480 (M) in presence of IGF-1,IGF-1R on SW480 cells [3],2e-06 M
same,"IC50 in MCF-7S8, in presence of IGF-1",[4],5000 nM and 2000 nM
same,"IC50, IGF-1 (10 nM)-induced proliferation of SW480 cells, exp. 13262-014",IGF-1R on SW480 cells [6],> 10000 nM
EVDRDCQARPCGDAANFYDWFGQQGTE [F269],IC50 in SW480 (M) in presence of IGF-1,IGF-1R on SW480 cells [3],5e-07 M
same,"IC50 in SW480 (M), peptide alone",IGF-1R on SW480 cells [3],> 1e-05 M
same,"IC50 in kinase assay (M), IGF-1R kinase activation by 10 nM IGF-1",[5],8e-07 M
"QFYGCLLDLSLGVPSFGWKKKCITA [F392, listing 1 of 2 here]","IC50, IGF-1 dependent growth of SW480",[1],800 nM
SFYSCLESLVTGPAEKSRGQWEGCRK [F292],IC50 in SW480 (M) in presence of IGF-1,IGF-1R on SW480 cells [3],1e-07 M
same,"IC50 in SW480 (M), peptide alone",IGF-1R on SW480 cells [3],1e-06 M
same,"IC50 in MCF-7S8, in presence of IGF-1",[4],1000 nM
DFYGCLLDLSLGVPSLGWRRRCIT (also called Peptide 428),"IC50, IGF-1 dependent growth of SW480",[1],500 nM and 1000 nM
IFYSCLASLLHGGPQRNTGPWERCRR [F141],"IC50, IGF-1 (10 nM)-induced proliferation of SW480 cells, exp. 13262-015",IGF-1R on SW480 cells [6],> 10000 nM
ESFYSCLASLVTGIPRSNSGTQVFCREE [F227],"IC50, IGF-1 (10 nM)-induced proliferation of SW480 cells, exp. 13262-015",IGF-1R on SW480 cells [6],> 10000 nM
SFYSCLESLVKRPTERSRGQWVGCR [F320],"IC50, down regulation of 3 nM IGF-1 stimulation to basal level, IGF-IR, L6 cells",IGF-1R on L6 cells [7],2000 nM and > 1000 nM
same,"IC50, down regulation of 3 nM IGF-1 stimulation to basal level, IRS-1, L6 cells",IGF-1R on L6 cells [7],> 2000 nM
same,"IC50, down regulation of 3 nM IGF-1 stimulation to basal level, MAPK42, L6 cells",IGF-1R on L6 cells [7],1000 nM
same,"IC50, down regulation of 3 nM IGF-1 stimulation to basal level, MAPK44, L6 cells",IGF-1R on L6 cells [7],1000 nM
same,"IC50, IGF-1 (10 nM)-induced proliferation of SW480 cells, exp. 13262-014",IGF-1R on SW480 cells [6],> 10000 nM
SFYSCLESLVSGPAEKSHRRWEACR [F321],"IC50, IGF-1 (10 nM)-induced proliferation of SW480 cells, exp. 13262-014",IGF-1R on SW480 cells [6],> 10000 nM
VQDDCRGRPCGDADSFYEWFDQQAGYGSSSRRAPQT,"IC50, IGF-1 (10 nM)-induced proliferation of SW480 cells, exp. 13262-015",IGF-1R on SW480 cells [6],> 10000 nM
"QFYGCLLDLSLGVPSFGWKKKCITA [F392, listing 2 of 2 here]","IC50, IGF-1 (10 nM)-induced proliferation of SW480 cells, exp. 13262-025",IGF-1R on SW480 cells [6],> 10000 nM
same,"IC50, IGF-1 (10 nM)-induced proliferation of SW480 cells, exp. 13262-027",IGF-1R on SW480 cells [6],1000 nM
[pGlu]FYGCLLDLSLGVPSFGWRRRCITA (cysteine pairing not given here) [F138P],"IC50, IGF-1 dependent growth in SW480",[1],500 nM
RQWDCRGRPCGDAESFYEWFDQQRS [F264],"IC50, IGF-1 dependent growth in SW480 cells",[1],> 1000 nM
DFYGCLLDLSLGVPSLGWRRRCIT,"IC50, IGF-1 (10 nM)-induced proliferation of SW480 cells, exp. 13717-019",IGF-1R on SW480 cells [6],1000 nM
same,"IC50, IGF-1 (10 nM)-induced proliferation of SW480 cells, exp. 13717-027",IGF-1R on SW480 cells [6],1000 nM
"QFYGCLLDLSLGVPSFGWRRRCITA [F138, listing 2 of 2 here]","IC50 in MCF-7S8, in presence of IGF-1",[4],500 nM
same,"IC50, down regulation of 3 nM IGF-1 stimulation to basal level, IRS-1, L6 cells",IGF-1R on L6 cells [7],300 nM
same,"IC50, down regulation of 3 nM IGF-1 stimulation to basal level, MAPK42, L6 cells",IGF-1R on L6 cells [7],300 nM
same,"IC50, down regulation of 3 nM IGF-1 stimulation to basal level, MAPK44, L6 cells",IGF-1R on L6 cells [7],300 nM and 100 nM
same,"IC50, down regulation of 3 nM IGF-1 stimulation to basal level, PKB/Akt, L6 cells",IGF-1R on L6 cells [7],300 nM and 100 nM
DFYGCLLDLSLGVPSLGWRRRCITA [F429],"IC50, down regulation of 3 nM IGF-1 stimulation to basal level, IGF-IR, L6 cells",IGF-1R on L6 cells [7],50 nM
same,"IC50, down regulation of 3 nM IGF-1 stimulation to basal level, IRS-1, L6 cells",IGF-1R on L6 cells [7],40 nM
same,"IC50, down regulation of 3 nM IGF-1 stimulation to basal level, MAPK42, L6 cells",IGF-1R on L6 cells [7],300 nM
same,"IC50, down regulation of 3 nM IGF-1 stimulation to basal level, MAPK44, L6 cells",IGF-1R on L6 cells [7],100 nM
same,"IC50, down regulation of 3 nM IGF-1 stimulation to basal level, PKB/Akt, L6 cells",IGF-1R on L6 cells [7],100 nM
same,"IC50, IGF-1 (10 nM)-induced proliferation of SW480 cells, exp. 13717-019",IGF-1R on SW480 cells [6],500 nM
same,"IC50, IGF-1 (10 nM)-induced proliferation of SW480 cells, exp. 13717-027",IGF-1R on SW480 cells [6],1000 nM
EDWLRCLGVILSGGLTELANTGCVQGE [F167],"IC50 in kinase assay (M), IGF-1R kinase activation by 10 nM IGF-1",[5],1e-06 M
ESYGDCRDRPCGDAPNFYDWFVQQASE [F270],"IC50, IGF-1 dependent growth in SW480",[1],2000 nM
SFYSCLESLVQGPAEKSRGQWEGCRK [F293],"IC50, IGF-1 dependent growth in MCF-7 cells",[1],10000 nM
same,"IC50, growth of L6 cells stimulated by IGF-1 at 3 nM",IGF-1R on L6 cells [8],> 10000 nM
same,"IC50, phosphorylation of IGF-1R and MAPK42/44 in response to IGF-1 treatment",IGF-1R on L6 cells [8],500 nM
same,Kd,[2],90 nM
EFSGFCMGLERLSQVSLGYCGAGQGGE [F169],IC50 in SW480 (M) in presence of IGF-1,IGF-1R on SW480 cells [3],2e-06 M
same,"IC50 in MCF-7S8, in presence of IGF-1",[4],2000 nM
EISFRCQLFVLAGMHPCPVDVGGEGFE [F170],"IC50 in MCF-7S8, in presence of IGF-1",[4],2000 nM
ESFYSCLESLVNGPAEKSRGQWDGCRE [F215],Kd,[2],80 to 300 nM
Ac-SFYSCLESLVTGPKERSRGQWEGCRR (cysteine pairing not given here) [F306],Kd,[9],100 nM
"Ac-SFYSCLESLVQGPAEKSRGQWEGCRK (cysteine pairing not given here, Second row labelled F365) [F365 (row r332, SEQ ID NO 200)]",Kd,[9],260 nM
SFYSCLESLVNGPAEKFRGRRDGCR [F380],Kd,[9],46000 nM
SQDQVGASLGSAISGRGGLSNFYSCLTSLATDTTRPSRRPWERCR [F397],Kd,[9],28000 nM
VQDDCRGRPCGDADSFYEWFDQGYGSSSRRAPQT [F404],Kd,[9],62000 nM
"QFYGCLLDLSLGVPSFGWRRRCITA (N-terminal Pox (8-amino-3,6-dioxaoctanoic acid)) [F406]",Kd,[9],14000 nM
RQFYGCLLDLSLGVPSFGWRRRCITAR [F407],Kd,[9],69000 nM
ESFYSCLASLVAGTPWPKGGSWERCREE [F230],Kd,[2],20 to 50 nM
EGRVDDAFYEWFERQLGEELCQSWGVRIGWLAGLCPE [F410],Kd,[9],37000 nM
{Biotin-AEEA}-SFYSCLESLVQGPAEKSRGQWEGCRK (cysteine pairing not given here) [F414],Kd,[9],65000 nM
GVGGWRYGSFPSFSSQTRS [F431],Kd,[9],1.7 nM
FVQDDCRGRPCGDADSFYEWFDQQAGYGSSSRRAPQT,Kd,[2],50 nM
